Measurements as given in paper PMC8628261 (Cell reports, 2021).

B1: mouse Kirrel2 ectodomain, wild type (domain or fragment, UniProt Q7TSU7 20-507, looked up)
chain: SPHFLQQPEDMVVLLGEEARLPCALGAYRGLVQWTKDGLALGGERDLPGWSRYWISGNSASGQHDLHIKPVELEDEASYECQASQAGLRSRPAQLHVMVPPEAPQVLGGPSVSLVAGVPGNLTCRSRGDSRPAPELLWFRDGIRLDGSSFHQTTLKDKATGTVENTLFLTPSSHDDGATLICRARSQALPTGRDTAVTLSLQYPPMVTLSAEPQTVQEGEKVTFLCQATAQPPVTGYRWAKGGSPVLGARGPRLEVVADATFLTEPVSCEVSNAVGSANRSTALEVLYGPILQAKPKSVSVDVGKDASFSCVWRGNPLPRITWTRMGGSQVLSSGPTLRLPSVALEDAGDYVCRAEPRRTGLGGGKAQARLTVNAPPVVTALQPAPAFLRGPARLQCVVFASPAPDSVVWSWDEGFLEAGSLGRFLVEAFPAPEVEGGQGPGLISVLHISGTQESDFTTGFNCSARNRLGEGRVQIHLGRRDLLPTVR
B2: mouse Kirrel3 ectodomain, wild type (domain or fragment, UniProt Q8BR86 22-535, looked up)
chain: LQKRGCCLVLGYMAKDKFRRMNEGQVYSFSQQPQDQVVVSGQPVTLLCAIPEYDGFVLWIKDGLALGVGRDLSSYPQYLVVGNHLSGEHHLKILRAELQDDAVYECQAIQAAIRSRPARLTVLVPPDDPIILGGPVISLRAGDPLNLTCHADNAKPAASIIWLRKGEVINGATYSKTLLRDGKRESIVSTLFISPGDVENGQSIVCRATNKAIPGGKETSVTIDIQHPPLVNLSVEPQPVLEDNIVTFHCSAKANPAVTQYRWAKRGHIIKEASGELYRTTVDYTYFSEPVSCEVTNALGSTNLSRTVDVYFGPRMTSEPQSLLVDLGSDAVFSCAWIGNPSLTIVWMKRGSGVVLSNEKTLTLKSVRQEDAGKYVCRAVVPRVGAGEREVTLTVNGPPIISSTQTQHALHGEKGQIKCFIRSTPPPDRIAWSWKENVLESGTSGRYTVETVNTEEGVISTLTISNIVRADFQTIYNCTAWNSFGSDTEIIRLKEQGSEMKSGAGLEAESVPMA

Target: the molecule itself
Test: AUC

Protein	Kd [nM]	stoichiometry N
B1	900	2
B2	210	2
